Test results taken from US20130136743A1 (LABORATOIRE FRANCAIS DU FRACTIONNEMENT ET DES …, published 2013).
Residue numbers refer to the chain shown, from its start. Names and notes keep the numbering of the source.

B1: 4C_35 (mutated huLFB112 phage-scFv clone) (scFv, part only; not given: scFv linker and phage partner, V domains shown, not shown: another chain or arm of the molecule; large carriers; small tags and cut ends)
VH: QVQLVQSGAEVKKPGASVKVSCKASGYTFTSYHIHWVRQAPGQRPEWMGWIYPGDDSTKYSQKFQGRVTITRDTSASTAYMELSSLRSEDTAVYYCTRGDRFAYWGQGTLVTVSS
VL: DIQMTQSPSTLSASVGDRVTITCRASSSVRYIAWYQQKPGKAPKLLIYSTSSLKSGVPSRFSGSGSGTEFTLTISSLQPDDFATYYCLQWSSYPWTFGGGTKVEIK
B2: 3C_23 (mutated huLFB112 phage-scFv clone) (scFv, part only; not given: scFv linker and phage partner, V domains shown, not shown: another chain or arm of the molecule; large carriers; small tags and cut ends)
VH: B1 VH with Q3R, P45L
VL: B1 VL with I47T, S49P, K54E
B3: 5B_81 (mutated huLFB112 phage-scFv clone) (scFv, part only; not given: scFv linker and phage partner, V domains shown, not shown: another chain or arm of the molecule; large carriers; small tags and cut ends)
VH: B1 VH
VL: B1 VL with K54E
B4: unmutated humanized 12G4 monoclonal antibody (antibody, human IgG1, kappa, V domains shown)
VH: B1 VH with P45L
VL: DIQMTQSPSTLSASVGDRVTITCRASSSVRYIAWYQQKPGKAPKLLIYSTSSLESGVPSRFSGSGSGTEFTLTISSLQPDDFATYYCLQWSSYPWTFGGGTKVEIKR
notes: Variable regions without leader joined to the constant regions; also called huLFB112; 632 07 107 Anti AMHRII hum 1st
B5: 4F_196 (mutated huLFB112 phage-scFv clone) (scFv, part only; not given: scFv linker and phage partner, V domains shown, not shown: another chain or arm of the molecule; large carriers; small tags and cut ends)
VH: B1 VH with Q3E, P45L, Q62R, E89D
VL: B1 VL with K54E
B6: mutated humanized 12G4 antibody 3C-23K produced in CHO (antibody, human IgG1, kappa, V domains shown)
VH: B1 VH with Q3R, P45L
VL: B4 VL with I47T, S49P, E54K
notes: also called 3C_23K CHO; 3C-23K-CHO
B7: 5A_28 (mutated huLFB112 phage-scFv clone) (scFv, V domains shown)
VH: B1 VH with P45L
VL: B1 VL with Y48H, S49P, K54E
notes: scFv on M13 phage, tested as culture supernatant; not shown: The 15-residue scFv linker (positions 116-130 of the scFv numbering) and the M13 phage display partner
B8: 3D_74 (mutated huLFB112 phage-scFv clone) (scFv, V domains shown)
VH: B1 VH with P45L
VL: B1 VL with S28P, K54E
notes: scFv on M13 phage, tested as culture supernatant; not shown: The 15-residue scFv peptide linker (positions 116-130 of the scFv numbering) and the M13 phage display partner
B9: 4F_169 (mutated huLFB112 phage-scFv clone) (scFv, V domains shown)
VH: B1 VH with Q6E, P45L, T58A
VL: B1 VL with K54E
notes: scFv on M13 phage, tested as culture supernatant; Q6E: TAG codon suppressed, translated to E in E. coli XL1-blue; not shown: The 15-residue scFv peptide linker (positions 116-130 of the scFv numbering) and the M13 phage display partner
B10: 4E_153 (mutated huLFB112 phage-scFv clone) (scFv, V domains shown)
VH: B1 VH with P45L, D56N, I70N, F102S
VL: B1 VL with K54E
notes: as for B8
B11: 5B_18 (mutated huLFB112 phage-scFv clone) (scFv, V domains shown)
VH: B1 VH with Q3E, A9T, P45L, A103T
VL: B1 VL with K54E
notes: scFv on M13 phage, tested as culture supernatant; Q3E: TAG codon suppressed, translated to E in E. coli XL1-blue; not shown: The 15-residue scFv peptide linker (positions 116-130 of the scFv numbering) and the M13 phage display partner
B12: 6B_87 (mutated huLFB112 phage-scFv clone) (scFv, V domains shown)
VH: B1 VH with Q1E, A24V, P45L
VL: B1 VL with K54E
notes: scFv on M13 phage, tested as culture supernatant; Q1E: TAG codon suppressed, translated to E in E. coli XL1-blue; not shown: The 15-residue scFv peptide linker (positions 116-130 of the scFv numbering) and the M13 phage display partner
B13: 6B_14 (mutated huLFB112 phage-scFv clone) (scFv, V domains shown)
VH: B1 VH with S31G, Q39E, P45L
VL: B1 VL with K54E
notes: scFv on M13 phage, tested as culture supernatant; Q39E: TAG codon suppressed, translated to E in E. coli XL1-blue; not shown: The 15-residue scFv peptide linker (positions 116-130 of the scFv numbering) and the M13 phage display partner
B14: 5A_66 (mutated huLFB112 phage-scFv clone) (scFv, V domains shown)
VH: B1 VH with P45L, V68M
VL: B1 VL with K54E, F82S
notes: as for B8
B15: 6A_80 (mutated huLFB112 phage-scFv clone) (scFv, V domains shown)
VH: B1 VH with A24V, P45L, Q62E
VL: B1 VL with K54E
notes: scFv on M13 phage, tested as culture supernatant; Q62E: TAG codon suppressed, translated to E in E. coli XL1-blue; not shown: The 15-residue scFv linker (positions 116-130 of the scFv numbering) and the M13 phage display partner
B16: mutated humanized 12G4 antibody 3C-23 produced in CHO (antibody, human IgG1, kappa, V domains shown)
VH: B1 VH with Q3R, P45L
VL: B4 VL with I47T, S49P
notes: also called 3C_23 CHO
B17: 4D_91 (mutated huLFB112 phage-scFv clone) (scFv, V domains shown)
VH: B1 VH with Q1E, V11A, P45L
VL: B1 VL with K54E
notes: as for B12
B18: 6B_76 (mutated huLFB112 phage-scFv clone) (scFv, V domains shown)
VH: B1 VH with A40V, P45L
VL: B1 VL with S49P, K54E
notes: as for B7
B19: mutated humanized 12G4 antibody 6B-78 produced in CHO (antibody, human IgG1, kappa, V domains shown)
VH: B1 VH with P45L
VL: B4 VL with E54K
notes: also called 6B_78 CHO

Tests used:
[1] = molecular target: T1, AMHR-II/Fc fusion protein (human, UniProt Q16671 18-149, limits assumed); assay: phage-scFv ELISA on AMHRII-Fc; mean of at least four values, standard deviation in parentheses
T1 construct: also called AMHR-II recombinant receptor expressed in the form of fusion protein with a region Fc; recombinant target; not shown: Fc region
Experimental: The secondary screening consists of analysing the clones selected at the end of the primary screening individually. For this, the 113 unique mutated clones were transferred to a culture plate (96 well-1.2 ml).
After production of the phage particles, the culture supernatants containing the phages-scFv were used for carrying out an ELISA binding assay. The binding of the mutated clones was evaluated at two dilutions (½ and ¼ of the supernatants containing the scFv-phages). The murine clones (mLFB112) and humanized clones (huLFB112) constructed under the scFv-phages format were used as references on each of the assay plates. Each of the mutated clones was tested at least twice.

[2] = molecular target: T2, Epitope peptide GGGGNLTQDRAQVEMQGSR; assay: method not stated; Example 2, heading names cov434-AMHR-II cells and the epitope peptide
T2 peptide: GGGGNLTQDRAQVEMQGSR

[3] = molecular target: T3, AMHRII receptor expressed on cells (cov434-AMHRII, Asc 1, META 2815) (human, UniProt Q16671 18-573); assay: cell-based or functional assay
T3 sequence (looked up): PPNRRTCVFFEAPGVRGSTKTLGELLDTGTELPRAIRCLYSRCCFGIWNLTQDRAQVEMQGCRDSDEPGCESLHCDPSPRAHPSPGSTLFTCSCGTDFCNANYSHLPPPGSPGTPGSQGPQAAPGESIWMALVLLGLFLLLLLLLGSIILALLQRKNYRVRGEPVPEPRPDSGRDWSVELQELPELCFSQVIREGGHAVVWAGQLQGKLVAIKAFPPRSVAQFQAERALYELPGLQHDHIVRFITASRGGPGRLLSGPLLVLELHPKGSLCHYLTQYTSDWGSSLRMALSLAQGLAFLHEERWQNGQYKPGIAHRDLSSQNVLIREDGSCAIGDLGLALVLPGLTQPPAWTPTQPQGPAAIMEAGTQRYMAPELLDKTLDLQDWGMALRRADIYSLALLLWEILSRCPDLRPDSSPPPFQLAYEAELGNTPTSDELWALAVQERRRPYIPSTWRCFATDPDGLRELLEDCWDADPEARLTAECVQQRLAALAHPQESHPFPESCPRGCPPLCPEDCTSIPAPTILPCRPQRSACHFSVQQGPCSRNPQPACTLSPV

[4] = molecular target: T3, AMHRII receptor expressed on cells …; assay: cell-based or functional assay; remark: listed apart in the source
[5] = molecular target: T3, AMHRII receptor expressed on cells …; assay: cell-based or functional assay; remark: listed apart in the source
[6] = molecular target: T1, AMHR-II/Fc fusion protein; assay: SPR, BIAcore X100; ratio against the chimeric 12G4
Experimental: (§1) The affinity of the antibodies for their antigen, AMHR-II, is determined by the SPR (Surface Plasmon Resonance) technique on BIACore X100 (BIACore, GE Healthcare). The AMHR-II recombinant receptor, expressed in the form of fusion protein with a region Fc, is immobilized by covalent coupling between its amine functions and the carboxyl groups of dextran activated in succinimide esters, present on the surface of the type CM5 sensor chip. The COOH groups of the sensor chip are activated for 7 minutes with EDC/NHS mixture (0.1 M of N-hydroxysuccinimide and 0.1 M of 3-(N,N-dimethylamino)propyl-N-ethylcarbodiimide) at a flow of 10 μl/min then the AMHR-II/Fc fusion protein, diluted to 5 μg/ml in 10 mM sodium acetate buffer, pH 4.0, is injected at […] on track 2 of the sensor chip so as to reach 300 RU. The ester groups that have not reacted with the amines of the fusion protein are deactivated by injection of a solution of ethanolamine-HCl 1M, pH 8.5 for 7 min at a flow of 10 μl:min. Track 1, serving as negative control, was activated and deactivated like track 2.
(§2) All the measurements are carried out at 25° C. The antibodies to be analysed are diluted in HBS-EP running buffer (BIACore, GE Healthcare) at concentrations from 6.25 to 3333 nM and injected on the sensor chip for 2 min at a flow of 30 μl/min. The dissociation step is monitored for 10 min and then the surface is regenerated by injection of 10 mM glycine buffer, pH 1.5 for 30 s at 10 μl/min.
(§3) The sensorgrams obtained are analysed using the 1:2 kinetic model of the BIAevaluation 3.1 software.

[7] = molecular target: T1, AMHR-II/Fc fusion protein; assay: SPR, BIAcore X100; AMHR-II/Fc immobilised on CM5 chip, antibody injected; 25 C
Experimental: as §1, §2, §3

Binder	Ratio AB invention/chimeric 12G4 [1]	Ratio AB invention/humanized 12G4 [1]	further results
B1	1.9	4.3	
B2	1.2	2.6	
B3	1.6	3.5	
B4			Kd [2]: 5260 nM; koff [2]: 0.00962 s⁻¹; kon [2]: 1830 M⁻¹ s⁻¹; % of lysis of ASC1 cells (ADCC with NK cells, LDH release) at 0.001 ng/ml antibody [3]: 0%; % of lysis of ASC1 cells (ADCC with NK cells, LDH release) at 0.005 ng/ml antibody [3]: 18%; % of lysis of ASC1 cells (ADCC with NK cells, LDH release) at 0.05 ng/ml antibody [3]: 2%; % of lysis of ASC1 cells (ADCC with NK cells, LDH release) at 0.5 ng/ml antibody [3]: 0%; % of lysis of ASC1 cells (ADCC with NK cells, LDH release) at 5 ng/ml antibody [3]: 7%; % of lysis of ASC1 cells (ADCC with NK cells, LDH release) at 50 ng/ml antibody [3]: 24%; % of lysis of ASC1 cells (ADCC with NK cells, LDH release) at 500 ng/ml antibody [3]: 50%; % of lysis of ASC1 cells (ADCC with NK cells, LDH release) at 5000 ng/ml antibody [3]: 50%; EC50 (ng/ml), ADCC on ASC1 cells [4]: 52.4 ng/mL; Emax (% of lysis), ADCC on ASC1 cells [4]: 52.4 % of lysis
B5	1.5	3	
B6			EC50, ADCC on META 2815 cells [5]: 0.467 µg/mL; KD chimeric/KD mutated [6]: 8.5; Kd [7]: 25 nM; koff [7]: 0.001 s⁻¹; kon [7]: 41000 M⁻¹ s⁻¹
B7	0.8	1.6	
B8	0.8	2	
B9	1	2	
B10	1	2	
B11	0.9	1.8	
B12	1	2.1	
B13	1.1	2.6	
B14	1.1	2.2	
B15	1.3	1.5	
B16			KD chimeric/KD mutated [6]: 2.5; Kd [7]: 86 nM; koff [7]: 0.0043 s⁻¹; kon [7]: 50000 M⁻¹ s⁻¹
B17	0.8	1.7	
B18	0.8	1.7	
B19			KD chimeric/KD mutated [6]: 2.6; Kd [7]: 81 nM; koff [7]: 0.0012 s⁻¹; kon [7]: 15000 M⁻¹ s⁻¹
